Molecular target: ACE-2–GFP, secreted form of angiotensin converting enzyme-2 fused to green fluorescent protein (UniProt Q9BYF1)
Assay: SPR; format not told in the text (Supplementary Fig. S2)

Chain of ACE-2–GFP, secreted form of angiotensin converting enzyme-2 fused to green fluorescent protein (Q9BYF1 18-740): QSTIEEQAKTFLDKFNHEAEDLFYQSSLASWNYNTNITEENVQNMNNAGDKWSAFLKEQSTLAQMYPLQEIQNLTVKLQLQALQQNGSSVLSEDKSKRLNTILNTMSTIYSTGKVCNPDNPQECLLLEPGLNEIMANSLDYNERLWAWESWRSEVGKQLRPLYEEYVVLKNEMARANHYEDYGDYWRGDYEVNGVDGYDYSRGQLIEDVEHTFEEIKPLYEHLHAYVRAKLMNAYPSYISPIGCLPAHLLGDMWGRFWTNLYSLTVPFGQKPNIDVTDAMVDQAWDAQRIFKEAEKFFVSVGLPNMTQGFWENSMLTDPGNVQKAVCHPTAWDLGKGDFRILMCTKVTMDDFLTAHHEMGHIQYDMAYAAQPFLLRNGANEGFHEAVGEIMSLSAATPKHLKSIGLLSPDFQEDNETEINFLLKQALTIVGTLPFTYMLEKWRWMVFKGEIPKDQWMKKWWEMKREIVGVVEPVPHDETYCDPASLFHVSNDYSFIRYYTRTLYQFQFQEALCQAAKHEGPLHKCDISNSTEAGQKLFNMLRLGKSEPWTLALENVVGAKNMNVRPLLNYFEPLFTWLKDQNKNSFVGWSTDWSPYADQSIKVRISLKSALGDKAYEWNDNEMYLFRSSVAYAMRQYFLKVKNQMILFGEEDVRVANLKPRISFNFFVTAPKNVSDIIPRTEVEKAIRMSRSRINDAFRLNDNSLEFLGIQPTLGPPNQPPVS

B1: SARS-CoV S1 (residues 19–713), Fc-tagged fusion protein (Fc fusion)
chain: not shown
Kd: 87.1 nM
